Assay results taken from patent US20230265171A1.
Like-named read-outs stand apart in the source and are kept apart here.

Columns and labels:
SARS CoV RBD (SARS-CoV) = SARS CoV RBD (SARS-CoV) (UniProt P59594); test: ELISA, antigen coated at 2 µg/mL
HCoV-229E S1 (HCoV-229E) = HCoV-229E S1 (HCoV-229E) (UniProt P15423); test: ELISA, antigen coated at 2 µg/mL
MERS CoV S1 (MERS CoV) = MERS CoV S1 (MERS CoV) (UniProt K9N5Q8); test: ELISA, antigen coated at 2 µg/mL
HCoV-NL63 S1 (HCoV-NL63) = HCoV-NL63 S1 (HCoV-NL63) (UniProt Q6Q1S2); test: ELISA, antigen coated at 2 µg/mL
[1] = target: SARS-CoV-2 spike glycoprotein S1 region (SARS-CoV-2) (UniProt P0DTC2); test: ELISA, coated antigen
[2] = target: SARS-CoV-2 spike receptor binding domain (RBD) (SARS-CoV-2) (UniProt P0DTC2); test: ELISA, coated antigen
[3] = target: SARS-CoV-2 spike glycoprotein S1 region (SARS-CoV-2) (UniProt P0DTC2); test: ELISA, coated antigen; remark: listed apart in the source
[4] = target: SARS-CoV-2 spike receptor binding domain (RBD) (SARS-CoV-2) (UniProt P0DTC2); test: ELISA, coated antigen; remark: listed apart in the source
[5] = target: Dengue serotype 1 envelope antigens on pseudotype virus (Dengue virus serotype 1); test: cell-based or functional assay
[6] = target: SARS-CoV-2 spike on GFP reporter pseudotype virus (SARS-CoV-2) (UniProt P0DTC2); test: cell-based or functional assay
[7] = target: SARS-CoV-2 spike receptor binding domain (RBD) (SARS-CoV-2) (UniProt P0DTC2); test: RBD:ACE2-His blocking ELISA, competitor ACE2-His

Substance	EC50 (SARS CoV RBD (SARS-CoV))	EC50 (HCoV-229E S1 (HCoV-229E))	EC50 (MERS CoV S1 (MERS CoV))	EC50 (HCoV-NL63 S1 (HCoV-NL63))	EC50 [1]	peak OD signal [1]	EC50 [2]	peak OD signal [2]	EC50 [3]	EC50 [4]	Neutralization IC50 [5]	CoV-2 pseudotype neutralization IC50 [6]	IC50 [7]
IVIG (Gamunex)	1280 µg/mL	96 µg/mL	1330 µg/mL	140 µg/mL	1410 µg/mL	1.99 OD	1270 µg/mL	2.26 OD	1380 µg/mL	1250 µg/mL	12.2 µg/mL	–	–
SARS CoV mAb [CR3022] (antibody)	–	–	–	–	–	–	–	–	0.078 µg/mL	0.088 µg/mL	–	100 µg/mL	–
SARS CoV-2 mAb [SAD-S35] (antibody)	–	–	–	–	–	–	–	–	0.058 µg/mL	0.057 µg/mL	–	0.26 µg/mL	1.1 µg/mL
